Measurements taken from paper PMC10908827, “Structural insight into an Arl1–ArfGEF complex involved in Golgi recruitment of a GRIP-domain golgin” (Nature Communications, 2024).

B2: S. cerevisiae full-length Gea2 with an N-terminal 6xHis-tag (natural protein, UniProt P39993 1-1459, looked up)
chain: MSDREFVTVDPVTIIIKECINLSTAMRKYSKFTSQSGVAALLGGGSEIFSNQDDYLAHTFNNLNTNKHNDPFLSGFIQLRLMLNKLKNLDNIDSLTILQPFLLIVSTSSISGYITSLALDSLQKFFTLNIINESSQNYIGAHRATVNALTHCRFEGSQQLSDDSVLLKVVFLLRSIVDSPYGDLLSNSIIYDVLQTILSLACNNRRSEVLRNAAQSTMIAVTVKIFSKLKTIEPVNVNQIYINDESYTNDVLKADTIGTNVESKEEGSQEDPIGMKVNNEEAISEDDGIEEEHIHSEKSTNGAEQLDIVQKTTRSNSRIQAYADDNYGLPVVRQYLNLLLSLIAPENELKHSYSTRIFGLELIQTALEISGDRLQLYPRLFTLISDPIFKSILFIIQNTTKLSLLQATLQLFTTLVVILGNNLQLQIELTLTRIFSILLDDGTANNSSSENKNKPSIIKELLIEQISILWTRSPSFFTSTFINFDCNLDRADVSINFLKALTKLALPESALTTTESVPPICLEGLVSLVDDMFDHMKDIDREEFGRQKNEMEILKKRDRKTEFIECTNAFNEKPKKGIPMLIEKGFIASDSDKDIAEFLFNNNNRMNKKTIGLLLCHPDKVSLLNEYIRLFDFSGLRVDEAIRILLTKFRLPGESQQIERIIEAFSSAYCENQDYDPSKISDNAEDDISTVQPDADSVFILSYSIIMLNTDLHNPQVKEHMSFEDYSGNLKGCCNHKDFPFWYLDRIYCSIRDKEIVMPEEHHGNEKWFEDAWNNLISSTTVITEIKKDTQSVMDKLTPLELLNFDRAIFKQVGPSIVSTLFNIYVVASDDHISTRMITSLDKCSYISAFFDFKDLFNDILNSIAKGTTLINSSHDDELSTLAFEYGPMPLVQIKFEDTNTEIPVSTDAVRFGRSFKGQLNTVVFFRIIRRNKDPKIFSKELWLNIVNIILTLYEDLILSPDIFPDLQKRLKLSNLPKPSPEISINKSKESKGLLSTFASYLKGDEEPTEEEIKSSKKAMECIKSSNIAASVFGNESNITADLIKTLLDSAKTEKNADNSRYFEAELLFIIELTIALFLFCKEEKELGKFILQKVFQLSHTKGLTKRTVRRMLTYKILLISLCADQTEYLSKLINDELLKKGDIFTQKFFATNQGKEFLKRLFSLTESEFYRGFLLGNENFWKFLRKVTAMKEQSESIFEYLNESIKTDSNILTNENFMWVLGLLDEISSMGAVGNHWEIEYKKLTESGHKIDKENPYKKSIELSLKSIQLTSHLLEDNNDLRKNEIFAIIQALAHQCINPCKQISEFAVVTLEQTLINKIEIPTNEMESVEELIEGGLLPLLNSSETQEDQKILISSILTIISNVYLHYLKLGKTSNETFLKILSIFNKFVEDSDIEKKLQQLILDKKSIEKGNGSSSHGSAHEQTPESNDVEIEATAPIDDNTDDDNKPKLSDVEKD
notes: Gea2, S. cerevisiae, Arf guanine nucleotide exchange factor, 1459 residues, amplified from genomic DNA of BY4741, vector pMCSG21; Homodimer by mass photometry and cryo-EM; also called Gea2 dimer

Tests used:
[1] = biological target: T1, ΔNT17 Q72L Arl1 in the Arl1–Gea2 complex (Saccharomyces cerevisiae, UniProt P38116, Q72L); experiment: cryo-EM structure ([…] Å); assay type: binding; details: 1 mM GTP, 1 mM MgCl2, 1 mM TCEP, HEPES pH 7.4, 4 °C; Arl1 nucleotide site; Gea2 bound
T1 construct: Arl1 lacking N-terminal 17 residues, Q72L, C-terminal 6xHis; full-length Gea2 (1459 residues, dimer), N-terminal 6xHis; both from E. coli NiCo21(DE3); two Arl1 on one Gea2 dimer; with ARF guanine-nucleotide exchange factor 2
T1 sequence (P38116 18-183 Q72L): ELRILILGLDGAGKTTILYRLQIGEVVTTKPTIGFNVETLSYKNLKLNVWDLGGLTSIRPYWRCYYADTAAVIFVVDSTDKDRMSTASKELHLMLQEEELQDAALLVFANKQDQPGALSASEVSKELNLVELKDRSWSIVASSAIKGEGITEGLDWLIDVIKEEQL
T1 sequence (P39993 1-1459 partner): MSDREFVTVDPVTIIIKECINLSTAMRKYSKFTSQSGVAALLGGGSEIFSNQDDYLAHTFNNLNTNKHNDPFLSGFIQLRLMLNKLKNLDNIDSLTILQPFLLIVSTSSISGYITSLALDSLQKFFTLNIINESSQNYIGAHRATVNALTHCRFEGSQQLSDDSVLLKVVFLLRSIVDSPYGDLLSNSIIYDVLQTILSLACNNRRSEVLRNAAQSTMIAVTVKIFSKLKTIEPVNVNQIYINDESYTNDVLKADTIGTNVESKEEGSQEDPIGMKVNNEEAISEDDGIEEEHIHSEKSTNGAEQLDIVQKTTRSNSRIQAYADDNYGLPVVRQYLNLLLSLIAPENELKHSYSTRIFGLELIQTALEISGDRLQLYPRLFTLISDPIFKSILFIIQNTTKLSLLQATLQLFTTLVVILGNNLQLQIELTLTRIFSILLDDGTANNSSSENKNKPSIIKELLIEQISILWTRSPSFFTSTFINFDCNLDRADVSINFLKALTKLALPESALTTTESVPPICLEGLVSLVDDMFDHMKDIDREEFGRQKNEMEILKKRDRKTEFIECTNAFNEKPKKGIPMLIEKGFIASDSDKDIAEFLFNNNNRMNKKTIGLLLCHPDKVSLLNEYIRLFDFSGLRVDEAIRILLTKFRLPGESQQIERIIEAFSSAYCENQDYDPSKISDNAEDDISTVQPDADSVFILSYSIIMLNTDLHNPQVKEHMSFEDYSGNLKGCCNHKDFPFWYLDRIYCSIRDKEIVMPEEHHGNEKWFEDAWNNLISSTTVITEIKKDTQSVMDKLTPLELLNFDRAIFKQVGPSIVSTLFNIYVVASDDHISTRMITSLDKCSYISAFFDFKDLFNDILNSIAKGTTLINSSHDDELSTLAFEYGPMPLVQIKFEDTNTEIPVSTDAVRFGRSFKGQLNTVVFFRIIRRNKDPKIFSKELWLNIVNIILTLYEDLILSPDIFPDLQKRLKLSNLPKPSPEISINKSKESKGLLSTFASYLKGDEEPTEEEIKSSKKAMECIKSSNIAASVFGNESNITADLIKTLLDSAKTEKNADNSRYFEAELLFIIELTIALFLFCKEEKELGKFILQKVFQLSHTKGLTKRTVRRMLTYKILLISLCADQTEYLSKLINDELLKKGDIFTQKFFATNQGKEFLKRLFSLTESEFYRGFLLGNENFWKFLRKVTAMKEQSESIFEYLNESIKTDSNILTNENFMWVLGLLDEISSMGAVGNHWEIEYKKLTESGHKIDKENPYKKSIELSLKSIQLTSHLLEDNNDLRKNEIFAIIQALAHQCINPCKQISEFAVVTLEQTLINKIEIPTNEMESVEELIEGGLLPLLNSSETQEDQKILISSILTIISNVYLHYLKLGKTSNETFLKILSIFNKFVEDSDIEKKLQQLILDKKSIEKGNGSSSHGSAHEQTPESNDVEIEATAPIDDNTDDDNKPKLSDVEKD

[2] = biological target: B2; experiment: SEC; 0.74 μM Gea2 (monomer) with 10-fold molar excess of ΔNT17 Q72L Arl1, 20 mM HEPES pH 7.4, 150 mM NaCl, 1 mM MgCl2, 1 mM TCEP, 1 mM GTP, 4 °C overnight; Superose 6 Increase 10/300 GL; peak fractions on SDS-PAGE; details: both partners purified
[3] = biological target: the molecule itself; experiment: mass photometry; 44.2 nM Gea2, Refeyn TwoMP, calibrated with β-amylase and thyroglobulin

Nc1nc2c(ncn2[C@@H]2O[C@H](COP(=O)(O)OP(=O)(O)OP(=O)(O)O)[C@@H](O)[C@H]2O)c(=O)[nH]1 [GTP]
cryo-EM structure (3.3 Å) [1]: far away from the γ-phosphate of the bound GTP in our structure

B1: N-terminal 17-residue truncated Q72L Arl1 with a C-terminal 6xHis-tag (natural protein, S. cerevisiae, UniProt P38116 18-183, looked up)
chain: ELRILILGLDGAGKTTILYRLQIGEVVTTKPTIGFNVETLSYKNLKLNVWDLGGLTSIRPYWRCYYADTAAVIFVVDSTDKDRMSTASKELHLMLQEEELQDAALLVFANKQDQPGALSASEVSKELNLVELKDRSWSIVASSAIKGEGITEGLDWLIDVIKEEQL
notes: Arl1, S. cerevisiae, the N-terminal 17 residues (amphipathic helix) removed, Q72L keeps it GTP-restricted; vector pMCSG28; mixed with Gea2 in buffer with 1 mM GTP; also called ΔNT17 Q72L Arl1; Arl1-GTP
binding result [2]: binds

B2
stoichiometry N [3]: 2
